Reference: article PMC7422940 (Journal of bone and mineral research : the official journal …, 2019)

Biological target: T1, His-tagged full-length ATF4 (mouse, UniProt Q06507 1-349)
T1 sequence (looked up): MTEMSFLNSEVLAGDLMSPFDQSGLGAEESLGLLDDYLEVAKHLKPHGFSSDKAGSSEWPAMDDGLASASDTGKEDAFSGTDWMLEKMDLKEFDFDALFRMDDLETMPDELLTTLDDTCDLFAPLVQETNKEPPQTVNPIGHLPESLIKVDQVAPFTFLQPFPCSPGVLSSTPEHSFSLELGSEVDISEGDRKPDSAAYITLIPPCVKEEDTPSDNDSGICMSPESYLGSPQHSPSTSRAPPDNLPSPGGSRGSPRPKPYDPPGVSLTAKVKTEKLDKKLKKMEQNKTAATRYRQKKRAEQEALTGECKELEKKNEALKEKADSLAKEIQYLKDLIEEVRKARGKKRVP
Assay: pull-down

binding result: binds
B1: GST-Hop2^81−147 (domain or fragment, mouse, UniProt O35047 81-147, looked up)
chain: VSDADLHGLDASIVALTAKVQSLQQSCRHMEAELKELTSALTTPEMQKEIQELKKECAQYTERLKNI
